Experimental data published in the supplement of paper PMC10724198.
± gives the standard deviation of the averaged measurements.

Columns and labels:
Saccharomyces cerevisiae [1] = assay: protein stability index of tFT-peptide fusion (C-terminal peptide) (PSI (0-1 scale)); higher = more stable (slower turnover)
Protocol: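 MPS profiling in S. cerevisiae of the tFT-X12 degron library: putative degron peptides plus stable controls, 12 aa, fused to the C-terminus of a sfGFP-mCherry timer. Cells are FACS-sorted into 8 mCherry/sfGFP bins and deep-sequenced. PSI runs from 0 (unstable) to 1 (stable). Backgrounds are wild type, das1Δ and doa10Δ at 30 °C, and wild type, das1Δ, cdc34-1 and cdc53-1 at 37 °C; 2-3 technical replicates each.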

Saccharomyces cerevisiae [2] = assay: as above; details: genetic background: wild type; temperature: 30 C
[3] = genetic background: cdc34-1, temperature: 37 C
[4] = genetic background: cdc53-1, temperature: 37 C
[5] = genetic background: das1 deletion, temperature: 30 C
[6] = genetic background: das1 deletion, temperature: 37 C
[7] = genetic background: doa10 deletion, temperature: 30 C
[8] = genetic background: wild type, temperature: 30 C
[9] = genetic background: wild type, temperature: 37 C
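Also: PSI is a weighted mean of sequencing reads over stability bins, variants kept only with over 10 reads, mCherry proximal and sfGFP distal, peptide attached via GGGS linker.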

Sequence: GCFVDRVYVVVV
- protein stability index (Saccharomyces cerevisiae [1]; [3]): 0.52605 ± 0.00036
- protein stability index (Saccharomyces cerevisiae [1]; [4]): 0.543 ± 0.043
- protein stability index (Saccharomyces cerevisiae [1]; [5]): 0.381 ± 0.026
- protein stability index (Saccharomyces cerevisiae [1]; [6]): 0.546 ± 0.016
- protein stability index (Saccharomyces cerevisiae [1]; [7]): 0.366 ± 0.014
- protein stability index (Saccharomyces cerevisiae [1]; [8]): 0.387 ± 0.022
- protein stability index (Saccharomyces cerevisiae [1]; [9]): 0.522 ± 0.0064
- protein stability index (Saccharomyces cerevisiae [2]): 0.4763 ± 0.00091

Sequence: VLLVRIFLCWVC
- protein stability index (Saccharomyces cerevisiae [1]; [3]): 0.178 ± 0.013
- protein stability index (Saccharomyces cerevisiae [1]; [4]): 0.256 ± 0.049
- protein stability index (Saccharomyces cerevisiae [1]; [5]): 0.184 ± 0.017
- protein stability index (Saccharomyces cerevisiae [1]; [6]): 0.338 ± 0.0097
- protein stability index (Saccharomyces cerevisiae [1]; [7]): 0.13 ± 0.0046
- protein stability index (Saccharomyces cerevisiae [1]; [8]): 0.118 ± 0.016
- protein stability index (Saccharomyces cerevisiae [1]; [9]): 0.1826 ± 0.001
- protein stability index (Saccharomyces cerevisiae [2]): 0.16 ± 0.039

Sequence: SVAGFFLLLLLS
- protein stability index (Saccharomyces cerevisiae [1]; [3]): 0.3561 ± 0.0034
- protein stability index (Saccharomyces cerevisiae [1]; [4]): 0.397 ± 0.0096
- protein stability index (Saccharomyces cerevisiae [1]; [5]): 0.305 ± 0.036
- protein stability index (Saccharomyces cerevisiae [1]; [6]): 0.487 ± 0.02
- protein stability index (Saccharomyces cerevisiae [1]; [7]): 0.191 ± 0.0079
- protein stability index (Saccharomyces cerevisiae [1]; [8]): 0.193 ± 0.029
- protein stability index (Saccharomyces cerevisiae [1]; [9]): 0.338 ± 0.0072
- protein stability index (Saccharomyces cerevisiae [2]): 0.285 ± 0.012

Sequence: QILVSYSFLYFF
- protein stability index (Saccharomyces cerevisiae [1]; [3]): 0.5506 ± 0.0046
- protein stability index (Saccharomyces cerevisiae [1]; [4]): 0.592 ± 0.041
- protein stability index (Saccharomyces cerevisiae [1]; [5]): 0.44 ± 0.03
- protein stability index (Saccharomyces cerevisiae [1]; [6]): 0.609 ± 0.023
- protein stability index (Saccharomyces cerevisiae [1]; [7]): 0.3549 ± 0.0034
- protein stability index (Saccharomyces cerevisiae [1]; [8]): 0.38 ± 0.017
- protein stability index (Saccharomyces cerevisiae [1]; [9]): 0.539 ± 0.0058
- protein stability index (Saccharomyces cerevisiae [2]): 0.509 ± 0.1

Sequence: EKTKRGLIQRVV
- protein stability index (Saccharomyces cerevisiae [1]; [3]): 0.68 ± 0.064
- protein stability index (Saccharomyces cerevisiae [1]; [4]): 0.721 ± 0.012
- protein stability index (Saccharomyces cerevisiae [1]; [5]): 0.641 ± 0.021
- protein stability index (Saccharomyces cerevisiae [1]; [6]): 0.693 ± 0.015
- protein stability index (Saccharomyces cerevisiae [1]; [7]): 0.247 ± 0.016
- protein stability index (Saccharomyces cerevisiae [1]; [8]): 0.293 ± 0.046
- protein stability index (Saccharomyces cerevisiae [1]; [9]): 0.554 ± 0.025
- protein stability index (Saccharomyces cerevisiae [2]): 0.3931 ± 0.0028

Sequence: APPHPPPATFLS
- protein stability index (Saccharomyces cerevisiae [1]; [3]): 0.643 ± 0.014
- protein stability index (Saccharomyces cerevisiae [1]; [4]): 0.732 ± 0.022
- protein stability index (Saccharomyces cerevisiae [1]; [5]): 0.685 ± 0.019
- protein stability index (Saccharomyces cerevisiae [1]; [6]): 0.721 ± 0.0092
- protein stability index (Saccharomyces cerevisiae [1]; [7]): 0.326 ± 0.032
- protein stability index (Saccharomyces cerevisiae [1]; [8]): 0.357 ± 0.026
- protein stability index (Saccharomyces cerevisiae [1]; [9]): 0.574 ± 0.012

Sequence: SLFFCIPIHSVF
- protein stability index (Saccharomyces cerevisiae [1]; [3]): 0.606 ± 0.046
- protein stability index (Saccharomyces cerevisiae [1]; [4]): 0.585 ± 0.0079
- protein stability index (Saccharomyces cerevisiae [1]; [5]): 0.491 ± 0.014
- protein stability index (Saccharomyces cerevisiae [1]; [6]): 0.5855 ± 0.0036
- protein stability index (Saccharomyces cerevisiae [1]; [7]): 0.398 ± 0.012
- protein stability index (Saccharomyces cerevisiae [1]; [8]): 0.423 ± 0.021
- protein stability index (Saccharomyces cerevisiae [1]; [9]): 0.524 ± 0.013
- protein stability index (Saccharomyces cerevisiae [2]): 0.461 ± 0.014

Sequence: GVMICLDLLLSV
- protein stability index (Saccharomyces cerevisiae [1]; [3]): 0.482 ± 0.011
- protein stability index (Saccharomyces cerevisiae [1]; [4]): 0.521 ± 0.021
- protein stability index (Saccharomyces cerevisiae [1]; [5]): 0.377 ± 0.025
- protein stability index (Saccharomyces cerevisiae [1]; [6]): 0.539 ± 0.014
- protein stability index (Saccharomyces cerevisiae [1]; [7]): 0.361 ± 0.018
- protein stability index (Saccharomyces cerevisiae [1]; [8]): 0.395 ± 0.017
- protein stability index (Saccharomyces cerevisiae [1]; [9]): 0.528 ± 0.0073
- protein stability index (Saccharomyces cerevisiae [2]): 0.468 ± 0.0081

Sequence: WFGCSTVWVRVQ
- protein stability index (Saccharomyces cerevisiae [1]; [3]): 0.286 ± 0.055
- protein stability index (Saccharomyces cerevisiae [1]; [4]): 0.394 ± 0.0052
- protein stability index (Saccharomyces cerevisiae [1]; [5]): 0.328 ± 0.037
- protein stability index (Saccharomyces cerevisiae [1]; [6]): 0.502 ± 0.0075
- protein stability index (Saccharomyces cerevisiae [1]; [7]): 0.0767 ± 0.0031
- protein stability index (Saccharomyces cerevisiae [1]; [8]): 0.0787 ± 0.024
- protein stability index (Saccharomyces cerevisiae [1]; [9]): 0.0591 ± 0.021
- protein stability index (Saccharomyces cerevisiae [2]): 0.147 ± 0.0067

Sequence: FNFFFSSVFLLV
- protein stability index (Saccharomyces cerevisiae [1]; [3]): 0.3037 ± 0.0011
- protein stability index (Saccharomyces cerevisiae [1]; [4]): 0.252 ± 0.025
- protein stability index (Saccharomyces cerevisiae [1]; [5]): 0.342 ± 0.048
- protein stability index (Saccharomyces cerevisiae [1]; [6]): 0.436 ± 0.051
- protein stability index (Saccharomyces cerevisiae [1]; [7]): 0.3 ± 0.022
- protein stability index (Saccharomyces cerevisiae [1]; [8]): 0.19 ± 0.02
- protein stability index (Saccharomyces cerevisiae [1]; [9]): 0.334 ± 0.029
- protein stability index (Saccharomyces cerevisiae [2]): 0.299 ± 0.015

Sequence: RMTFFGFTVKML
- protein stability index (Saccharomyces cerevisiae [1]; [3]): 0.641 ± 0.025
- protein stability index (Saccharomyces cerevisiae [1]; [4]): 0.7448 ± 0.0058
- protein stability index (Saccharomyces cerevisiae [1]; [5]): 0.619 ± 0.0095
- protein stability index (Saccharomyces cerevisiae [1]; [6]): 0.75 ± 0.011
- protein stability index (Saccharomyces cerevisiae [1]; [7]): 0.196 ± 0.036
- protein stability index (Saccharomyces cerevisiae [1]; [8]): 0.264 ± 0.03
- protein stability index (Saccharomyces cerevisiae [1]; [9]): 0.537 ± 0.01
- protein stability index (Saccharomyces cerevisiae [2]): 0.407 ± 0.031

Sequence: FLPHLMCVFSFC
- protein stability index (Saccharomyces cerevisiae [1]; [3]): 0.456 ± 0.05
- protein stability index (Saccharomyces cerevisiae [1]; [4]): 0.489 ± 0.01
- protein stability index (Saccharomyces cerevisiae [1]; [5]): 0.394 ± 0.028
- protein stability index (Saccharomyces cerevisiae [1]; [6]): 0.522 ± 0.0054
- protein stability index (Saccharomyces cerevisiae [1]; [7]): 0.3324 ± 0.0015
- protein stability index (Saccharomyces cerevisiae [1]; [8]): 0.334 ± 0.016
- protein stability index (Saccharomyces cerevisiae [1]; [9]): 0.465 ± 0.0064
- protein stability index (Saccharomyces cerevisiae [2]): 0.382 ± 0.0022

Sequence: WLLVVCRGLVFR
- protein stability index (Saccharomyces cerevisiae [1]; [3]): 0.227 ± 0.0051
- protein stability index (Saccharomyces cerevisiae [1]; [4]): 0.228 ± 0.024
- protein stability index (Saccharomyces cerevisiae [1]; [5]): 0.25 ± 0.036
- protein stability index (Saccharomyces cerevisiae [1]; [6]): 0.4124 ± 0.0027
- protein stability index (Saccharomyces cerevisiae [1]; [7]): 0.329 ± 0.023
- protein stability index (Saccharomyces cerevisiae [1]; [8]): 0.236 ± 0.022
- protein stability index (Saccharomyces cerevisiae [1]; [9]): 0.405 ± 0.018
- protein stability index (Saccharomyces cerevisiae [2]): 0.319 ± 0.046

Sequence: VFFFFSLVNFRV
- protein stability index (Saccharomyces cerevisiae [1]; [3]): 0.546 ± 0.061
- protein stability index (Saccharomyces cerevisiae [1]; [4]): 0.574 ± 0.041
- protein stability index (Saccharomyces cerevisiae [1]; [5]): 0.459 ± 0.042
- protein stability index (Saccharomyces cerevisiae [1]; [6]): 0.606 ± 0.017
- protein stability index (Saccharomyces cerevisiae [1]; [7]): 0.47 ± 0.05
- protein stability index (Saccharomyces cerevisiae [1]; [8]): 0.419 ± 0.021
- protein stability index (Saccharomyces cerevisiae [1]; [9]): 0.549 ± 0.03
- protein stability index (Saccharomyces cerevisiae [2]): 0.486 ± 0.041
